# Measured values as given in patent publication US20180311291A1 (PSIOXUS THERAPEUTICS, published 2018).
# B1: anti-VEGF ScFv with C-terminal His6 tag expressed from NG-78 infected cells (scFv)
# scFv: EVQLVESGGGLVQPGGSLRLSCAASGYTFTNYGMNWVRQAPGKGLEWVGWINTYTGEPTYAADFKRRFTFSLDTSKSTAYLQMNSLRAEDTAVYYCAKYPHYYGSSHWYFDVWGQGTLVTVSSGGGGSGGGGSGGGGSDIQMTQSPSSLSASVGDRVTITCSASQDISNYLNWYQQKPGKAPKVLIYFTSSLHSGVPSRFSGSGSGTDFTLTISSLQPEDFATYYCQQYSTVPWTFGQGTKVEIKRHHHHHH
# notes: also called NG-78 anti-VEGF ScFv
# B2: anti-VEGF ScFv with C-terminal His6 tag expressed from NG-76 infected cells (scFv)
# scFv: B1 scFv
# notes: also called NG-76 anti-VEGF ScFv
# B3: anti-VEGF full length IgG1 antibody secreted from NG-165 infected cells (antibody, V domains shown)
# VH: EVQLVESGGGLVQPGGSLRLSCAASGYTFTNYGMNWVRQAPGKGLEWVGWINTYTGEPTYAADFKRRFTFSLDTSKSTAYLQMNSLRAEDTAVYYCAKYPHYYGSSHWYFDVWGQGTLVTVSS
# VL: DIQMTQSPSSLSASVGDRVTITCSASQDISNYLNWYQQKPGKAPKVLIYFTSSLHSGVPSRFSGSGSGTDFTLTISSLQPEDFATYYCQQYSTVPWTFGQGTKVEIKR
# B4: anti-VEGF full length antibody (human IgG1) secreted from NG-135 infected cells (antibody, V domains shown)
# VH: B3 VH
# VL: B3 VL
# notes: also called SSA-Bev-PA
# What was measured:
# human VEGF-165 [1] = molecular target: T1, human VEGF-165 (human, UniProt P15692-4 27-191); experiment: direct VEGF binding ELISA and competition ELISA with bevacizumab, HRP anti-His detection; 293F supernatant and lysate
# T1 sequence (P15692 other isoform, or with tags, fused parts or gaps limits assumed): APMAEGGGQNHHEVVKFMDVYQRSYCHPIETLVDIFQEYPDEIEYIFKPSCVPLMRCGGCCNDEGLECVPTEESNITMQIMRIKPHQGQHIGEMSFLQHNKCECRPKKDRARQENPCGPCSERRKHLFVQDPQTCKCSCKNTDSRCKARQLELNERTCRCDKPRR
# Experimental: The cells and media were harvested from the flask and the supernatant and cells were separated by centrifuging for 10 mins, 1000 rpm. The supernatant was collected and the remaining cell pellet resuspended in 1 ml of cell media before carrying out 3 freeze-thaw cycles to lyse the cells. Post-lysis the cell debris and media was separated by a second centrifugation step and the supernatant from the lysate was collected. The supernatants or lysates were diluted 1 in 2 in 3% BSA/PBS 0.05% tween. […] Samples were added to the plates at 100 μl/well and incubated for 1 hr VEGF bound ScFv was detected using HRP-conjugated polyclonal anti-His (Abcam ab1187) followed by TMB detection.
# human VEGF-165 [2] = molecular target: T1, human VEGF-165; experiment: VEGF binding ELISA, HRP anti-His detection
# Experimental: Plates were washed between all subsequent binding steps with PBS 0.05% Tween 20. The plates were blocked for 1 hour at room temperature with 3% BSA in PBS 0.05% Tween 20.
# AD293 cells were seeded in 6 well culture plates at a density of 5e5 cells per well. […] Cells were cultured for 72 hrs before the supernatants were collected from the wells and centrifuged for 5 mins, 1200 rpm to remove cell debris. The clarified supernatants were then used for either VEGF binding ELISA or Western blot analysis. […] Samples were added to the plates at 100 μl/well and assay. The detection antibody, HRP conjugated polyclonal anti-His (Abcam ab1187) was then applied for 1 hr at room temperature before HRP detection was performed with HRP substrate solution 3.3.5.5′-teramethylethylenediamine (TMB, Thermo-Fisher). 1M HCl was used for stopping the reaction and the developed colour was measured at 450 nm on a plate reader.
# recombinant CTLA4-Fc = molecular target: T2, recombinant CTLA4-Fc (UniProt P16410 37-162); experiment: direct CTLA-4 binding ELISA on CTLA4-Fc coated plates; supernatant diluted 1 in 2 to 1 in 2048
# T2 construct: also called CTLA4-Fc (R&D Systems, 325-CT-200); not shown: Fc part of the bought fusion protein
# T2 sequence (P16410 37-162 limits assumed): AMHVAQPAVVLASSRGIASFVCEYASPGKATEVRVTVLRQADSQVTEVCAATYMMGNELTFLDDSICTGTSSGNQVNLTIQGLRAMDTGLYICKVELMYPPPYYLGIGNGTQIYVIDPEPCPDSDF
# recombinant PDL1-Fc = molecular target: T3, recombinant PDL1-Fc (UniProt Q9NZQ7 19-239); experiment: direct PD-L1 binding ELISA on PDL1-Fc coated plates; 10-fold concentrated supernatant diluted 1 in 2 to 1 in 2048; anti-kappa light chain detection
# T3 construct: also called PDL1-Fc (R&D Systems, 156-B7-100); not shown: Fc part of the bought fusion protein
# T3 sequence (Q9NZQ7 19-239 limits assumed): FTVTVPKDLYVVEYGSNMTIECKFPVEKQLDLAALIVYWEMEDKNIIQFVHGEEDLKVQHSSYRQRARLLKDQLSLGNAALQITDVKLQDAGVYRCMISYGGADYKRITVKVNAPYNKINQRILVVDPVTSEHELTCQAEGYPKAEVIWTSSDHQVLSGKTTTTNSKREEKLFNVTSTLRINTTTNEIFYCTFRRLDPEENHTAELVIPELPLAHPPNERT
# [3] = molecular target: T4, non-recombinant PD-L1 ligand expressed in a membrane environment on the surface of lung carcinoma cells (A549) (human, UniProt Q9NZQ7 19-290); experiment: flow cytometry on A549 cells with or without IFNgamma stimulation; 50 ul concentrated supernatant; Alexa-fluor 488 anti-human IgG detection
# T4 construct: whole, on cells; also called cellular PD-L1; PD-L1 on IFNg stimulated A549 cells
# T4 sequence (Q9NZQ7 19-290): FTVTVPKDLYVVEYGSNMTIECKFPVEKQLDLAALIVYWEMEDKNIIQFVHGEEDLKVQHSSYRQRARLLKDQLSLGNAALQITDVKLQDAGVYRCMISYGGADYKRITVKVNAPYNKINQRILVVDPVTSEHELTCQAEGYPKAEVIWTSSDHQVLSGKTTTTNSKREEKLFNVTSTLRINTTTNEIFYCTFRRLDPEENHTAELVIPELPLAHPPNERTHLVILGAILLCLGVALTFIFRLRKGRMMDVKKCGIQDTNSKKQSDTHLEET
# Experimental: A549 cells were either stimulated with 50 ng/ml human IFNγ to promote upregulation of PD-L1 expression on the cell surface or left unstimulated. […] The cells were washed again, resuspended in PBS/1% BSA and analysed with an Attune acoustic focusing cytometer (Life Technologies).
binder,measurement,setting,value
B1,binding result,human VEGF-165 [1],binds
B2,binding result,human VEGF-165 [2],binds
B3,binding result,recombinant CTLA4-Fc,no binding
same,binding result,recombinant PDL1-Fc,no binding
B4,binding result,[3],no binding
